For assay [1], the target named is T1, human podocalyxin (human).
T1 chain: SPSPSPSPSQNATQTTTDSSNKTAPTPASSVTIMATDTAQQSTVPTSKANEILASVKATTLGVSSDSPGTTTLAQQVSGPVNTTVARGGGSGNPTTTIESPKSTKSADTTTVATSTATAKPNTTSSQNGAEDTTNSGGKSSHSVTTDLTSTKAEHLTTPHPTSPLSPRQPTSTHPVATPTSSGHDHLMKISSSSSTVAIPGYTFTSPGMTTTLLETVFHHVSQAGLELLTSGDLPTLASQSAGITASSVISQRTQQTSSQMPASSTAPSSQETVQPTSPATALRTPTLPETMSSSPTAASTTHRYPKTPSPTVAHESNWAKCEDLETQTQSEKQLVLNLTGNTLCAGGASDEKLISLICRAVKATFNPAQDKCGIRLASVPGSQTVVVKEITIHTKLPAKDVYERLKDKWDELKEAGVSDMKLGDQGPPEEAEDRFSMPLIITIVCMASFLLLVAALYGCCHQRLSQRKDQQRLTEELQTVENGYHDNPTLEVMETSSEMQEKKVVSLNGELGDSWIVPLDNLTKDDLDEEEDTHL
In words: cross competition FACS on MDA-MB-231 cells; unlabeled antibody 25 ug/mL; detected antibody: B-mIgG1 5 ug/mL (control).

In assay [2] the target is T1, human podocalyxin. The assay can be described thus: cross competition FACS on MDA-MB-231 cells; unlabeled antibody 25 ug/mL; competitor and detected antibody: B-3G2.2 5 ug/mL.
In assay [3] the target is T1, human podocalyxin. The assay can be described thus: cross competition FACS on MDA-MB-231 cells; unlabeled antibody 25 ug/mL; detected antibody: B-Herceptin 5 ug/mL (control, its target on the cells not given).
Assay [4] addresses T1, human podocalyxin. The assay can be described thus: cross competition FACS on MDA-MB-231 cells; unlabeled antibody 25 ug/mL; detected antibody: B-Ova 12 5 ug/mL (control).
Assay [5] deals with T1, human podocalyxin. In words: cross competition FACS on MDA-MB-231 cells; unlabeled antibody 25 ug/mL; competitor and detected antibody: biotinylated Rb/Hu Podo83 5 ug/mL.
In assay [6] the target is T1, human podocalyxin. In words: FACS, isotype control, hPodo/MDA cells. (In flow cytometry, cells or beads pass a laser one at a time.)
Assay [7] has as its target T1, human podocalyxin. The assay can be described thus: flow cytometry, supernatant 1:125, MDA-MB-231 cells.
Assay [8] has as its target T1, human podocalyxin. The assay can be described thus: flow cytometry, supernatant 1:5, MDA-MB-231 cells.
For assay [9], the target named is T1, human podocalyxin. In words: flow cytometry, supernatant neat, MDA-MB-231 cells.
The target of assay [10] is T1, human podocalyxin. The assay can be described thus: flow cytometry, supernatant 2:15 (so in the source), hPodo/MDA-MB-231 transient transfectants.
Assay [11] has as its target T1, human podocalyxin. The assay can be described thus: flow cytometry, supernatant 2:15 (so in the source), MDA-MB-231 cells.
The target in assay [12] is T1, human podocalyxin. The assay can be described thus: flow cytometry, supernatant 1:5, hPodo/MDA-MB-231 transient transfectants.
Assay [13] has as its target T1, human podocalyxin. The assay can be described thus: flow cytometry, supernatant 1:125, hPodo/MDA-MB-231 transient transfectants.
Assay [14] concerns the target T1, human podocalyxin. In words: flow cytometry, supernatant neat, hPodo/MDA-MB-231 transient transfectants.
In assay [15] the target is human podocalyxin (human). The assay can be described thus: FACS, hPodo/MDA cells (MDA-MB-231 transfected with human podocalyxin cDNA).
Assay [16] has as its target human podocalyxin (human). The assay can be described thus: flow cytometry, supernatant 2:15 (so in the source), hPodo/MDA-MB-231 transient transfectants. This is another data set of the same source.
Assay [17] has as its target human podocalyxin (human). In words: flow cytometry, supernatant 1:125, hPodo/MDA-MB-231 transient transfectants. The source holds these as a separate data set.
Assay [18] concerns the target human podocalyxin (human). In words: flow cytometry, supernatant neat, hPodo/MDA-MB-231 transient transfectants. This is another data set of the same source.
Assay [19] concerns the target human podocalyxin (human). In words: flow cytometry, supernatant 1:125, MDA-MB-231 cells. This is another data set of the same source.
Assay [20] has as its target human podocalyxin (human). In words: flow cytometry, supernatant 1:5, MDA-MB-231 cells. The source holds these as a separate data set.
The target in assay [21] is human podocalyxin (human). In words: flow cytometry, supernatant 1:5, hPodo/MDA-MB-231 transient transfectants. The source holds these as a separate data set.
Assay [22] addresses human podocalyxin (human). In words: flow cytometry, supernatant 2:15 (so in the source), MDA-MB-231 cells. This is another data set of the same source.
In assay [23] the target is human podocalyxin (human). The assay can be described thus: flow cytometry, supernatant neat, MDA-MB-231 cells. The source holds these as a separate data set.

The record followed here is patent US20160264663A1 (published 2016).

Take MAB1658 (R&D Systems) (antibody): the FACS signal (name not given) with human podocalyxin [1] came out at 431; with human podocalyxin [2], 26900; in the assay with human podocalyxin [3], 4720; in the assay with human podocalyxin [4] it was 476; with human podocalyxin [5], 127000.
On to mIgG1 (antibody), for which the FACS signal (name not given) in the assay with human podocalyxin [1] was found to be 414; in the assay with human podocalyxin [2], 26600; in the assay with human podocalyxin [3], 4810; with human podocalyxin [4], 458; in the assay with human podocalyxin [5], 124000.
The molecule hIgG2 (antibody) displayed an FACS signal (name not given) with human podocalyxin [6] of 533.
Same read-out and setting: the value for hIgG1 (antibody) was 544.
In the case of “3D3 (Santa Cruz Biotechnology sc23904) (antibody)”, the FACS signal (name not given) is 419 with human podocalyxin [1]; 26400 with human podocalyxin [2]; 4820 with human podocalyxin [3]; 450 with human podocalyxin [4]; 135000 in the assay with human podocalyxin [5].

B1: Rb VH, Vk 1:1 (Podo 83 rabbit VH, human CH1-CH3, human Ck, and humanized Vk) (antibody, V domains shown)
VH: QSLAESGGRLVTPGTPLTLTCTASGIDLSSYAMGWVRQAPGKGLEYIGFIYASGSIFYASWAKGRFTISKTSSTTVDLKMTSLTTEDTATYFCARAGYYFGGNYDLNLWGQGTLVTVSS
VL: DIQMTQSPSSLSASVGDRVTITCQASQSISNYLAWYQQKPGKVPKLLIYRASTLASGVPSRFSGSGSGTDFTLTISSLQPEDVATYYCQQGYVSNNLDNIFGGGTEVVVK
Turning to B1, the “FACS signal (name not given)” value is 47700 in the assay with human podocalyxin [7]; 115000 with human podocalyxin [8]; 130000 in the assay with human podocalyxin [9]; 76400 in the assay with human podocalyxin [10]; 94800 in the assay with human podocalyxin [11]; 124000 with human podocalyxin [12]. The results for the “FACS signal (name not given)” value with human podocalyxin [13] and with human podocalyxin [14] were 74500 and 137000, respectively.

B2: Rb/huPodo 83 hIgG2 (antibody, V domains shown)
VH: CQSLAESGGRLVTPGTPLTLTCTASGIDLSSYAMGWVRQAPGKGLEYIGFIYASGSIFYASWAKGRFTISKTSSTTVDLKMTSLTTEDTATYFCARAGYYFGGNYDLNLWGQGTLVTVSS
VL: DIVLTQTPASVEVAVGGTVTIKCQASQSISNYLAWYQRKPGQPPRLLIYRASTLASGVSSRFKGSGSGTQFTLTISGVECADAATYYCQQGYVSNNLDNIFGGGTEVVVK
modifications: human IgG2 constant regions
B2 came in with an FACS signal (name not given) in [15] of 98300.

B3: Rabbit Podo 83 (Parental rabbit antibody) (antibody, V domains shown)
VH: CQSLAESGGRLVTPGTPLTLTCTASGIDLSSYAMGWVRQAPGKGLEYIGFIYASGSIFYASWAKGRFTISKTSSTTVDLKMTSLTTEDTATYFCARAGYYFGGNYDLNLWGQGTLVTVSS
VL: DIVLTQTPASVEVAVGGTVTIKCQASQSISNYLAWYQRKPGQPPRLLIYRASTLASGVSSRFKGSGSGTQFTLTISGVECADAATYYCQQGYVSNNLDNIFGGGTEVVVK
modifications: rabbit constant regions
For the molecule B3, the FACS signal (name not given) is 89700 in [16]; 24100 in [17]; 90800 in assay [18]; 15500 in assay [19]; 129000 in [20]; 139000 in assay [21]. The FACS signal (name not given) in assay [22] was determined as 53700; in [23], 179000.
